Test results published in patent US20250144178A1, “PHARMACEUTICAL COMPOSITION FOR CANCER TREATMENT COMPRISING FUSION PROTEIN INCLUDING IL-12 AND ANTI-FAP ANTIBODY AND ANTICANCER AGENT” (KANAPH THERAPEUTICS INC., priority 2022, published 2025).

How the values were obtained:
4T1 tumor = experiment: Tumor re-challenge in mice with complete response, 4T1 tumor; type: in vivo, BALB/c mice; details: mice with complete response after T1.01m, left flank, FIG. 27
Description: (§1) In order to evaluate whether tumor recurrence may be inhibited by inducing long-term immune response after fusion protein treatment, tumor re-challenge was performed in subjects in which complete response was achieved by administration of T1.01m in a tumor model transplanted with CT26 cells overexpressing FAP. BALB/c mice without a treatment history were used as control mice.
(§2) 4T1 cells were subcutaneously injected into the left flank and CT26 cells were subcutaneously injected into the right flank of control mice and mice in which complete response was achieved by administration of T1.01m, to obtain a tumor recurrence model.
(§3) CT26 cells and 4T1 cells were suspended in Hanks' Balanced salt solution (HBSS, Gibco) at a concentration of 1×10^6 cells/100 μl, respectively, and CT26 cells were transplanted into the subcutaneous region of the right flank of the mice using a 1 cc syringe (25G). Tumor formation and growth were evaluated by subcutaneous transplantation of 4T1 cells into the left flank of the same mice. Nine animals were used for the control group, and seven animals were used for the test group.

HEK-Blue IL-12 cells = experiment: Signaling ability in IL-12 recognizing cells (STAT4 inducible SEAP reporter); type: cell-based, human; details: serial dilution from 4 nM, 24 hours, FIG. 18
Description: The HEK-Blue IL-12 cell line transformed with the IL-12 receptor gene and the STAT4 inducible SEAP reporter gene into HEK293 cells, which are human embryonic kidney fibroblasts, was obtained from Invivogen (San Diego, USA). The HEK-Blue IL-12 cells were maintained in DMEM (GIBCO) containing 10% FBS (GIBCO), 100 μg/ml Normocin and 1×HEK-Blue selection.
Specifically, the HEK-Blue IL-12 cell line, which is an IL-12 recognizing cell, was diluted to 2.8×10^5 cells/ml and dispensed at 180 μl/well. Recombinant human IL-12, T1.01m, T1.02m, T1.03m and T1.12m were suspended at 4 nM and diluted by serial dilution. HEK-Blue IL-12 cells were treated with the diluted recombinant human IL-12, T1.01m, T1.02m, T1.03m and T1.12m. After 24 hours of treatment, the cell supernatant was collected and mixed with QUANTI-Blue Solution (Invivogen) in a 96-well plate. The reporter expression level was measured at 620 nm using a spectrophotometer (Thermo Fisher).

[1] = tested on: FAP-overexpressing CT26 cells; experiment: Tumor growth inhibition, FAP-overexpressing CT26 model, repeated i.p. dosing; type: in vivo, BALB/c mice; details: 18 days after administration, control 50 μg T1.24m
Description: In order to prepare an mouse FAP-expressing tumor animal model, FAP overexpression was induced in CT26, a mouse colorectal cancer cell line. Specifically, the FAP-overexpressing CT26 cells in culture were resuspended in Hanks' Balanced salt solution (HBSS, Gibco), and then each 100 μl of 1×10^6 tumor cells per each mouse was transplanted into the subcutaneous region of the left dorsal side of 6-week-old BALB/c mice using a 1 cc syringe (25G) to obtain a mouse FAP-expressing colorectal cancer animal model. The tumor size was measured using a digital vernier caliper by measuring the short axis and long axis of the tumor, and the tumor size was measured twice a week using the calculation formula of (short axis, mm) 2×(long axis, mm)×0.5.
Next, for drug efficacy evaluation, when the size of the tumor reached 100 mm^3, the mice were randomly divided into groups. Each experimental group consisted of 8 animals, and as a control, each 100 μl of 50 μg of T1.24m was intraperitoneally administered four times at an interval of 3 days. In the test group, each 100 μl of 10 μg and 100 μg of T1.01m, and 2 μg, 10 μg and 100 μg of T1.02m, respectively, were intraperitoneally administered four times at an interval of 3 days to evaluate the tumor growth inhibitory ability.

CT26 tumor = experiment: Tumor re-challenge in mice with complete response, CT26 tumor; type: in vivo, BALB/c mice; details: mice with complete response after T1.01m, right flank, FIG. 26
Description: as §1, §2, §3

recombinant mouse FAP = target: T1, recombinant mouse FAP (Mus musculus, UniProt P97321); experiment: Surface plasmon resonance binding to recombinant mouse FAP; details: SPR, 2 μg/ml protein, FIGS. 13 and 14
T1 sequence (P97321 1-761): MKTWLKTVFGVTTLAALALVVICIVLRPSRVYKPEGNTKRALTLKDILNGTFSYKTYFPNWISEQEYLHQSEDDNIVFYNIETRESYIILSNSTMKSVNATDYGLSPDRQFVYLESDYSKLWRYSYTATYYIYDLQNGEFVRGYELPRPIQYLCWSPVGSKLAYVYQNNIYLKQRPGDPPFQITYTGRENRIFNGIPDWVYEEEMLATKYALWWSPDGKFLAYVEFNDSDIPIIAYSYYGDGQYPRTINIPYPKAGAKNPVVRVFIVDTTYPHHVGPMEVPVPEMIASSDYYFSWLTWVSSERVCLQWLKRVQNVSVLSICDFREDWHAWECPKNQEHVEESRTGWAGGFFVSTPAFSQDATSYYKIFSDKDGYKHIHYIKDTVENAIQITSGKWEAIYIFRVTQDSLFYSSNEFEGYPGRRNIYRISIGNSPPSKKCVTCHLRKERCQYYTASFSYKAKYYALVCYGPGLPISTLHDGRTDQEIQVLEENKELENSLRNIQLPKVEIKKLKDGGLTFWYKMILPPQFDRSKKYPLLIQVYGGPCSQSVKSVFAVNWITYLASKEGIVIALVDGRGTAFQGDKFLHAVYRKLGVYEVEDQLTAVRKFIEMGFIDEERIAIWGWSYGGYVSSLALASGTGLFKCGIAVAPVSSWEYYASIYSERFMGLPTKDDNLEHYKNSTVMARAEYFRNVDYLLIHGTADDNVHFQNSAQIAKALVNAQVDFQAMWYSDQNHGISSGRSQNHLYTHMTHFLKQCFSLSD
Description: The surface of the CM5 chip was activated with a 1:1 mixture of […] (N-hydroxysuccinimide) and […] (1-Ethyl-3-(3-dimethylaminopropyl) carbodiimide), and 25 μg/ml of anti-mouse IgG (Fc) antibody was immobilized for 400 seconds at a rate of 10 μl/min. The remaining active ester groups were blocked with 1 M ethanolamine. T1.01m, T1.02m and T1.03m were diluted to 2 μg/ml and reacted on the CM5 chip immobilized with the anti-mouse IgG (Fc) antibody. The recombinant mouse FAP was diluted to 200 nM in 1×HBS-EP+buffer solution and diluted by serial dilution. The diluted recombinant mouse FAP was reacted at a rate of 30 μl/min. The association and dissociation times were 180 seconds and 400 seconds, respectively. After the dissociation, stabilization was performed for 60 seconds, and then a regeneration was performed for 30 seconds with a 10 mM glycine pH 1.5 solution at a rate of 30 μl/min.

B1: T1.01m: K&H bispecific: anti-mu FAP/mu IL-12, mu IgG2a DANG (seq18, seq19, seq20) (antibody)
heavy: QVQLQQSGAELARPGASVNLSCKASGYTFTNNGINWLKQRTGQGLEWIGEIYPRSTNTLYNEKFKGKATLTADRSSNTAYMELRSLTSEDSAVYFCARTLTAPFAFWGQGTLVTVSAAKTTAPSVYPLAPVCGDTTGSSVTLGCLVKGYFPEPVTLTWNSGSLSSGVHTFPAVLQSDLYTLSSSVTVTSSTWPSQSITCNVAHPASSTKVDKKIEPRGPTIKPCPPCKCPAPNLLGGPSVFIFPPKIKDVLMISLSPIVTCVVVAVSEDDPDVQISWFVNNVEVHTAQTQTHREDYGSTLRVVSALPIQHQDWMSGKEFKCKVNNKDLPAPIERTISKPKGSVRAPQVYVLPPPEEEMTKKQVTLWCMVTDFMPEDIYVEWTNNGKTELNYKNTEPVLDSDGSYFMYSKLRVEKKNWVERNSYSCSVVHEGLHNHHTTKSFSRTPGK
light: QIVLTQSPAIMSASPGEKVTMTCSASSGVNFMHWYQQKSGTSPKRWIFDTSKLASGVPARFSGSGSGTSYSLTISSMEAEDAATYYCQQWSFNPPTFGGGTKLEIKRADAAPTVSIFPPSSEQLTSGGASVVCFLNNFYPKDINVKWKIDGSERQNGVLNSWTDQDSKDSTYSMSSTLTLTKDEYERHNSYTCEATHKTSTSPIVKSFNRNEC
chain: MWELEKDVYVVEVDWTPDAPGETVNLTCDTPEEDDITWTSDQRHGVIGSGKTLTITVKEFLDAGQYTCHKGGETLSHSHLLLHKKENGIWSTEILKNFKNKTFLKCEAPNYSGRFTCSWLVQRNMDLKFNIKSSSSSPDSRAVTCGMASLSAEKVTLDQRDYEKYSVSCQEDVTCPTAEETLPIELALEARQQNKYENYSTSFFIRDIIKPDPPKNLQMKPLKNSQVEVSWEYPDSWSTPHSYFSLKFFVRIQRKKEKMKETEEGCNQKGAFLVEKTSTEVQCKGGNVCVQAQDRYYNSSCSKWACVPCRVRSGGGGSGGGGSGGGGSRVIPVSGPARCLSQSRNLLKTTDDMVKTAREKLKHYSCTAEDIDHEDITRDQTSTLKTCLPLELHKNESCLATRETSSTTRGSCLPPQKTSLMMTLCLGSIYEDLKMYQTEFQAINAALQNHNHQQIILDKGMLVAIDELMQSLNHNGETLRQKPPVGEADPYRVKMKLCILLHAFSTRVVTINRVMGYLSSAGGGGSGGGGSEPRGPTIKPCPPCKCPAPNLLGGPSVFIFPPKIKDVLMISLSPIVTCVVVAVSEDDPDVQISWFVNNVEVHTAQTQTHREDYGSTLRVVSALPIQHQDWMSGKEFKCKVNNKDLPAPIERTISKPKGSVRAPQVYVLPPPEEEMTKKQVTLSCAVTDFMPEDIYVEWTNNGKTELNYKNTEPVLDSDGSYFMVSKLRVEKKNWVERNSYSCSVVHEGLHNHHTTKSFSRTPGK
With B1 the “growth of re-challenged 4T1 tumor” value (4T1 tumor) was “the 4T1 tumor grew”, the “IL-12 recognition / STAT4 reporter gene expression (620 nm absorbance)” value (HEK-Blue IL-12 cells) was “IL-12 was recognized, and STAT4 expressed a reporter gene by inducing phosphorylation” and the “tumor growth inhibitory ability compared to control” value ([1]; 10 μg i.p. four times at an interval of 3 days) was 84.9%. The “tumor growth inhibitory ability compared to control” value ([1]; 100 μg i.p. four times at an interval of 3 days) was 85.6%, the “growth of re-challenged CT26 tumor” value (CT26 tumor) was “the growth of the CT26 tumor was inhibited” and the “Binding to recombinant mouse FAP” value (recombinant mouse FAP) was “may bind to recombinant mouse FAP to specifically target FAP”.
